Entries after “also recorded” stand apart in the source; their conditions may differ.
Tests used:
[1] = biological target: T1, TGFBRII (type II TGF-β receptor) (Homo sapiens, UniProt P37173); assay: 125I TGF-β1 / TGFBRII cross-linking (DSS) and anti-HA immunoprecipitation in transfected HEK293T cells; type: binding; conditions: HEK293T transfected with TGFBRII-HA and Flag-EMI-domain-GPI; iodinated TGF-β1; FIG. 2A
T1 construct: expressed in transfected cells; host or cells: HEK293T
Procedure: Experiments were performed according to standard methods (Massague, 1987). Briefly, a solution of iodinated TGF-β1 (Amersham) was applied to HEK293T cells grown in 24 well plates and transfected with a plasmid carrying the sequence of TGFBRII (type II TGF-β receptor) fused to the HA epitope. After appropriate incubation and washing, the cell layer was exposed to a solution of DSS (disuccinimidyl suberate), a compound that favors formation of covalent cross-links between interacting molecules. The cell layer was extracted with immunoprecipitation buffer (RIPA-buffer) and subjected to the immunoprecipitation procedure with anti-HA antibody. The immunoprecipitate was solubilized with FSB (final sample buffer), separated by SDS-PAGE and radioactive complexes were detected by autoradiography. Molar excess of unlabeled TGF-β was used in parallel experiments. In other experiments, cells were simultaneously transfected with TGFBRII and with expression vectors driving expression of the emilin-1 EMI domain bound to GPI (glycosylphosphatidylinositol), a moiety which anchors the EMI domain to the cell membrane, that was tagged with the Flag epitope (Flag-EMI-domain-GPI).
Transfected cells, usually HEK293T, were incubated in Optimem (Invitrogen) for 24 hours prior to collection. […]

[2] = biological target: T2, pro TGF-β (Homo sapiens, UniProt P01137); assay: Co-immunoprecipitation / Western blot of EMI domain or emilin1 with pro TGF-β in HEK293T cells; type: binding; conditions: HEK293T cell extracts or culture medium; anti-Flag / anti-LAP IP; FIG. 4A-4C
T2 construct: expressed in transfected cells; host or cells: HEK293T
Excerpt: • The construct for emilin 1 expression was engineered in pCS2 vector (Rupp R. A. et al., 1994, Genes Dev 8, 1311-1323) (for a physical map of the vector, see the site faculty.washington.edu/rtmoon/pcs2+.html) as described (Zanetti M. et al., 2004, Mol Cell Biol 24, 638-650); the vector used for proTGF-β expression in MEF and HEK293T cells is pCDNA3.1 (Invitrogen). Vectors containing the coding sequence for human pro TGF-β are described in Young and Murphy-Ullrich, 2004 (Young and Murphy-Ullrich, 2004, J Biol Chem 279, 38032-38039). […]

T2 sequence (P01137 30-390): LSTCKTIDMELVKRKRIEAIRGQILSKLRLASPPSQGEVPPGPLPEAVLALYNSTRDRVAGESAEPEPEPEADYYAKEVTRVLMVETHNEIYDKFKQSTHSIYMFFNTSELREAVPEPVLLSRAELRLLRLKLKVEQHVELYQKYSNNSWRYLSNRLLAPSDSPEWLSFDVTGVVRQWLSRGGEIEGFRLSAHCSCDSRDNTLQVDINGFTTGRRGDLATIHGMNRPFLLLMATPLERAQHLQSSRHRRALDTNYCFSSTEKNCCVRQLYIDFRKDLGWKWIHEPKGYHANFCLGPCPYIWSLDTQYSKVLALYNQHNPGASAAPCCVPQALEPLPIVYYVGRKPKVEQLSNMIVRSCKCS
T1 sequence (P37173 23-567): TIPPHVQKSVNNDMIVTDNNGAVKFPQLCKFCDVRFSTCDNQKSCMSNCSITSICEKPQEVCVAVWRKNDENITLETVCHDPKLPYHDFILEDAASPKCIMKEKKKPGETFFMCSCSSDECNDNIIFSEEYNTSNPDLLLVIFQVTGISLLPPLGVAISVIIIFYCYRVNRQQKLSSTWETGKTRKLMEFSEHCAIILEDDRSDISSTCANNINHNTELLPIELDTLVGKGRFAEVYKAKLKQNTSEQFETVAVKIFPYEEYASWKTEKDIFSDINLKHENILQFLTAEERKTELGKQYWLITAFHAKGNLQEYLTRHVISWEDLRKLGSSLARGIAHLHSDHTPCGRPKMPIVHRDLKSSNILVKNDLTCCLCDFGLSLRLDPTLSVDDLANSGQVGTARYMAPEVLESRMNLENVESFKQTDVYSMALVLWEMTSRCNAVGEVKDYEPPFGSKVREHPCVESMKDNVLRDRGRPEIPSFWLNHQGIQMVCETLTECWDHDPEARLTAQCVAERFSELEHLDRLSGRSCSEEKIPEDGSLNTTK

B1: EMI domain: cysteine-rich domain of emilin-1, residues 55-131, SEQ ID NO 2; in some experiments Flag-tagged and GPI-anchored (protein)
chain: RHRNWCAYVVTRTVSCVLEDGVETYVKYQPCAWGQPQCPQSIMYRRFLRPRYRVAYKTVTDMEWRCCQGYGGDDCAE
modifications: sometimes Flag tag and GPI anchor; homo sapiens
notes: in some experiments Flag-tagged and GPI-anchored
Competition with TGF-β for binding to TGFBRII (TGFBRII/TGF-β complex band) [1]: does non compete with TGF-β for binding to TGFBRII | Interaction with pro TGF-β (co-immunoprecipitation) [2]: interacts specifically; also recorded: interacts only with the intact pro TGF-β molecule
